According to patent publication US20120253008A1 (Ablynx, published 2012):

Molecular target: T1, human serum albumin (human, UniProt P02768 25-609)
T1 construct: also called HSA
Test: phage ELISA and/or solution binding competition ELISA on HSA

Row | Binder | binding result
1 | AAYYFDYDVFGGGTPEGT [PMP56C1] | binds
2 | AARYPDYDVFGGGTPVGG [PMP54C2] | binds
3 | AARYPDYDVFGGGTPSGG [PMP56C6] | binds
4 | AAWYRDYDVFGGGTDEGS [PMP54B1] | binds
5 | AAPYHDYDVFGGGTPVGE [PMP56A2] | binds
6 | AAWYFDYDVFGGGTADGE [PMP56F3] | binds
7 | AARYYDYDVFGGGTRSGE [PMP54C1] | binds
8 | AASYRDYDVFGGGTPRGW [PMP54H3] | binds
9 | AALYRDYDVFAGGTPGGG [PMP54E2] | binds
10 | AAAYWDYDVFGGGTSAGT [PMP54H2] | binds
11 | AAFYWDYDVFGGGTDPGA [PMP56G3] | binds
12 | AARYWDYDVFGGGTDPGG [PMP56G2] | binds
13 | AARYFDYDVFGGGTPAGD [PMP56B2] | binds
14 | AARYYDYDVFGGGTPLGG [PMP56G6] | binds
15 | AAWYFDYDVFGGGTADGE [PMP56H6] | binds
16 | AASYLDYDVFGGGTPFGE [PMP54H1] | binds
17 | AARYYDYDVFGGGTPLGG [PMP56F5] | binds
18 | AATYFDYDVFGGGTAVGS [PMP54G1] | binds
19 | AAIYRDYDVFGGGTPLGQ [PMP54G2] | binds
20 | AALYGDYDVFGGGTPLGE [PMP54F2] | binds
21 | AARYLDYDVFGGGTPIGE [PMP54C3] | binds
22 | AAWYRDYDVFGGGTPLGA [PMP56H1] | binds
23 | AARYLDYDVFGGGTDVGS [PMP54F3] | binds
24 | AARYYDYDVFGGGTAGGQ [PMP56A6] | binds
25 | AAAYLDYDVFGGGTPVGG [PMP56G5] | binds
26 | AAYYYDYDVFGGGTPGGE [PMP54G3 (SEQ ID NO: 44)] | binds
27 | AARYWDYDVFGGGTPQGE [PMP56B1] | binds
28 | AARYYDYDVFGGGTPLGG [PMP56E6] | binds
29 | AARYYDYDVFGGGTPLGA [PMP56E5] | binds
30 | AARYYDYDVFGGGTPLGA [PMP56C3] | binds

Results, then the binder that gave them:

Row | binding result | Binder
31 | binds | AARYYDYDVFGGGTPLGA [PMP56E3]
32 | binds | AARYWDYDVFGGGTPQGE [PMP56C2]
33 | binds | AAYYYDYDVFGGGTPGGE [PMP56E1]
34 | binds | AAFYRDYDVFGGGTGSGN [PMP54E1]
35 | binds | AAFYWDYDVFGGGTDPGA [PMP56H3]
36 | binds | AAWYTDYDVFGGGTPQGG [PMP56F1]
37 | binds | AAYYRDYDVFGGGTPVGE [PMP56A5]
38 | binds | AAYYFDYDVFGGGTPEGT [PMP56G1]
39 | binds | AAVYDDYDVFGGGTPVGG [PMP56B3]
40 | binds | AALYRDYDVFGGGTPVGG [PMP56F6]
41 | binds | AALYRDYDVFGGGTPVGG [PMP56B5]
42 | binds | AAMYYDYDVFGGGTPTGA [PMP56C5]
43 | binds | AATYYDYDVFGGGTPLGQ [PMP56D5]
44 | binds | AALYRDYDVFGGGTQVGE [PMP54G3 (SEQ ID NO: 49)]
45 | binds | AADYYDYDVFGGGTSVGE [PMP56A1]
46 | binds | AARYFDYDVFGGGTDLGD [PMP54D2]
47 | binds | AALYKDYDVFGGGTPGGE [PMP56D4]
48 | binds | AAVYWDYDVFGGGTSLGD [PMP56B6]
49 | binds | AARYLDYDVFGGGTQLGS [PMP54D3]
